Reference: patent US20190201542A1 (AbbVie / Abbott, published 2019)

T1: human DLL3 (human, UniProt Q9NYJ7 27-492, limits assumed)
T1 construct: also called hDLL3; DLL3 protein
T1 sequence: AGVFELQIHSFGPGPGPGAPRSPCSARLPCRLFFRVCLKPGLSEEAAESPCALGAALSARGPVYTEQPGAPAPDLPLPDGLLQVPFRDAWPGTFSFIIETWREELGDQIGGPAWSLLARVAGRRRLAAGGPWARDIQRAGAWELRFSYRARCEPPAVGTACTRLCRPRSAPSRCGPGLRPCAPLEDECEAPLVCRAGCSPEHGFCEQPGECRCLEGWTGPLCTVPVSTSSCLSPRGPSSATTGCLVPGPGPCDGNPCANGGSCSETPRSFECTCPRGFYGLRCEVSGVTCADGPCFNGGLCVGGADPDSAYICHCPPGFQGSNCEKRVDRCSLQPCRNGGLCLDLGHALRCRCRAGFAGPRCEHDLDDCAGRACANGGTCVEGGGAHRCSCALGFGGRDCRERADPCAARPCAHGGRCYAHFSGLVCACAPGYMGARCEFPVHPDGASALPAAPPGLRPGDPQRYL

B1: SC16.18 (antibody, V domains shown)
VH: EVKLEESGGGLVQPGESMKLSCAASGFTFSDAWMDWVRQSPEKGLEWVAEIRNKANNHATYYAESVKGKFTISRDDSKSRVYLQMNNLRAADTGIYYCTAYSNFAYWGQGTLVTVST
VL: DIQMTQTTSSLSASLGDRVTISCRASQNIINYLNWYQQKPDGTVKLLIYYTSRLHSGVPSRFSGSGSGTDYSLTISNLEPEDIATYYCQQYSERPYTFGGGTKLEIK
notes: murine mAb
B2: SC16.4 (antibody, V domains shown)
VH: QIQLVQSGPELKKPGETVKISCKASGYTFTDYSMHWVKQAPGKGLKWMGWINTETGEPGYADDFKGRFAFSLETSASTAYLQINNLKNEDTATYFCARYDGYAMDYWGQGTSVTVSS
VL: DIQMTQTTSSLSASLGDRVTISCRASQDISNYLNWYQQKPDGTVKLLIYYTSRLHSGVPSRFSGSGSGTDYSLTISNLELEDIATYFCQQGDMLPWTFGGGTKLEIK
notes: murine mAb
B3: SC16.35 (antibody, V domains shown)
VH: DVQLQESGPGLVKPSQSLSLTCTVTGYSITSDYAWNWIRQFPGNKLEWMGYISYSGSTSYNPSLKSRISITRDTSKNQFFLQLNSVTTEDTATYYCARFYYGSSYAMDYWGQGTSVTVSS
VL: DIQMTQTTSSLSASLGDRVTISCRASQDISNYLNWYQQKPDGTVKLLIYYTSRLHSGVPSRFSGSGSGTDYSLTISNLEQEDIATYFCQQGNTLPYTFGGGTKLEIK
notes: murine mAb
B4: SC16.41 (antibody, V domains shown)
VH: EVKLEESGGGLVQFGGSMKLSCAASGFTFSDAWMDWVRQSPEKGLEWVAEIRNKANNHATYYPESVKGRFTISRDDSKSRVYLQMNNLRAEDTGIYYCTGYSSFAYWGQGTLVTVSA
VL: DIQMTQTTSSLSASLGDRVTISCRASQDVINYLNWYQQKPDGTVKLLIYYTSRLHSGVPSRFSGSGSRTDYSLTISNLEPEDIATYYCQQYSERPYTFGGGTKLEIK
notes: murine mAb
B5: SC16.52 (antibody, V domains shown)
VH: QVQLKESGPGLVAPSQSLSITCAVSGFSLTSFAIHWFRKPPGKGLEWLGVIWTGGTTNYNSALMSRLSISKDNSKSQVFLKMNSLQTDDTAMYYCARDDYDNNYAMDYWGQGTSVTVSS
VL: DIQMIQSPSSMFASLGDRVSLSCRASQGIRGTLDWYQQKPNGTIKLLIYSTSNLNSGVPSRFSGSGSGSDYSLTISSLESEDFADYYCLQRNAYPLTFGAGTKLELK
notes: murine mAb
B6: SC16.20 (antibody, V domains shown)
VH: QVQLQQSGTELVRPGTSVRVSCKASGYAFGNHLIEWVKQRPGQGLEWIGVINPGTGGTHYNEKFKDKARLTADKSSNTAYMHLNSLTSDDSAVYFCARSPYDYHEGAMDYWGQGTSVTVSS
VL: EIQMTQSPSSMSASLGDRITITCQATQDIVKNLNWYQQKPGKPPSFLIYYATELAEGVPSRFSGSGSGSDYSLTIRNLESEDFADHYCLQFYEFPFTFGAGTKLELK
notes: murine mAb
B7: SC16.45 (antibody, V domains shown)
VH: QVQLQQSGADLVRPGTSVKVSCKASGYSFTNYLIEWVKQRPGQGLEWIGVINPGSGGTHYNEKFKDKAVLTADKSSTTAHMQLSSLTSDDSAVYFCARSPYDYNDGAMDYWGQGTSVTVSS
VL: EIQMTQSPSSMSASLGDRITITCQATQDIVKNLNWYQQKPGKPPSFLIYYATELAEGVPARFSGSGSGSDYSLTISNLESEDFADYHCLQFYEFPFTFGAGTKLELK
notes: murine mAb
B8: SC16.21 (antibody, V domains shown)
VH: QVQLQQSGPELVKPGASVKISCKASGYAFSSSWMNWVKQRPGKGLEWIGRIYPGDGDTNYNGKFKGKATLTADKSSSTAYMQLSSLTSEDSAVYFCAMGIYNYDGSRYYSMDYWGQGTSVTVSS
VL: DIVMTQSPSSLAMSVGQKVTMSCKSSQSLLNSSNQKNYLAWYQQEPGQSPKLLVSFASTRESGVPDRFTGSGSGTDFTLTISGVQAEDLAVYYCQQHYSIPLTFGAGTKLELK
notes: murine mAb
B9: SC16.3 (antibody, V domains shown)
VH: QVTLKESGPGILQPSQTLSLTCSFSGFSLSTSGMGVGWIRQPSGKGLEWLAHIWWDDVKRYNPALKSRLTISKDTSSSQVFLKIASVDTADTATYYCARIADYGGDYYAMDYWGQGTSVTVSS
VL: QIVLTQSPAIMSVSLGERVTMTCTASSSVSSSYLHWYQQKPGSSPKLWIYSTSNLASGVPARFSGSGSGTSYFFTISSMEAEDAATYYCHQYHRSPFTFGAGTKLKIR
notes: murine mAb
B10: SC16.30 (antibody, V domains shown)
VH: QVTLKESGPGILQPSQTLSLTCSFSGFSLSTSGMGVGWIRQPSGKGLEWLAHIWWDDVKRYKPALKSRLTVSKDTSSNQVFLKIATVDAADTGTYYCARIVDGHPPFAYWGQGTLVTVSA
VL: QIVLTQSPTIMSASLGERVTMTCTASSSVTSSYLHWYQQKPGSSPKLWIYSTSNLASGVPARFSGSGSGTSYSLTISSMEAEDAATYYCHQFHRSPFTFGSGTKLEIK
notes: murine mAb
B11: SC16.47 (antibody, V domains shown)
VH: EVQLQQSGPELVKPGASVKISCKASGYSFSRFYMHWVKQSPENSLEWIGEINPSTGGTSYNQKFKGKATLTVDKSSSTAYMQLKSLTSEESAVYYCTRGYGSNCYFDVWGAGTTVTVST
VL: DVVLTQSPLSLPVNIGDQASISCKSTKSLLNSDGFTYLDWYLQRPGQSPQFLIYLVSNRFSGVPDRFSGSGSGTDFTLKISRVEAEDLGVYYCFQSNYLPLTFGAGTKLELR
notes: murine mAb
B12: SC16.38 (antibody, V domains shown)
VH: EVQLQQSGAELVKPGASVKLSCTVSGFNIKDTYIHWVKQRPEQGLEWIGRIDPANGNTKYDPKFQGKATITADTSSNTAYLQLSSLTSEDTAVYYCARPTGYFEYWGQGTTLTVSS
VL: QIVLTQSPAIMSASPGEKVTMTCSASSSINYMHWYQQKPGTSPKRWIYDTSKLASGVPARFSGSGSGTSYSLTISSMEAEDAATYYCHQRSTWTFGGGTKLEIK
notes: murine mAb
B13: SC16.29 (antibody, V domains shown)
VH: QVQLQQSGAELARPGASVKLSCKASGYTFTDQYINWVKQRTGQGLEWIGEIYPGRGNTYYNEKFKGKATLTADKSSSTAYMQLSSLTSEDSAVYFCAREDGGYDDAWFAYWGQGTLVTVSA
VL: QIVLTQSPAIMSASPGEKVTITCSASSSVSYMHWFQQKPGTSPKLWIYTTSNLASGVPARFSGSGSGTSYSLTVSRMEAEDAATYYCQQRSLYPYTFGGGTKVEIK
notes: murine mAb
B14: SC16.5 (antibody, V domains shown)
VH: QVTLKESGPGILQPSQTLSLTCSFSGFSLSTSGMGVGWIRQPSGEGLEWLADIWWDDNKYYNPSLKSRLTISKDTSSNQVFLKITSVDTADTATYYCARRVNYVYDPYYAMDYWGQGTSVTVSS
VL: QIVLTQSPAIMSASPGEKVTMTCSASSSVSYMHWYQQKSGTSPKRWIYDTSKLASGVPARFSGSGSGTSYSLTISSMEAEDAATYYCQQWTRNPLTFGAGTKLELK
notes: murine mAb
B15: SC16.25 (antibody, V domains shown)
VH: QVTLKESGPGILQPSQTLSLTCSFSGFSLSTSGMGVGWIRQPSGEGLEWLTDIWWDDNKYYNPSLKSRLTISKDTSSNQVFLNITSVDTADTATYYCARRVNYYYDPYYAMDYWGQGTSVTVSS
VL: QIVLTQSPAIMSASPGEKVTMTCSASSSVSYMHWYQQKSGTSPKRWIYDSSKLASGVPARFSGSGSGTSYSLTISSMEAEDAATYYCQQWSSNPLTFGAGTKLELK
notes: murine mAb
B16: SC16.22 (antibody, V domains shown)
VH: QVQLQQPGAELVKPGASVKLSCKASGYTFTTYWMHWVKQRPGQGLEWIGEIDPSDSYTYYNQKFKGKATLTVDKSSSTAYMQLSSLTSEDSAVYYCARGDYGNPYAMDYWGQGSSVTVSS
VL: DIQMTQTTSSLSASLGDRVTISCRASQDIKNYLNWYQQKPDGTVKPLIYYTSRVHSGVPSRFSGSGSGTDYSLTISNLEQEDIATYFCQQGYTLPFTFGSGTKLEIK
notes: murine mAb
B17: SC16.19 (antibody, V domains shown)
VH: EVQLQQSGAELVRPGASVKLSCTASGFNIKDSLLHWVKQRPEKGLEWIGWIDPEDGETKYAPNFQDKATITTDSSSNTAYLQLISLTSVDTAIYYCAYGNYVRHFDYWGQGTTLTVSS
VL: DIQMTQSPSSLSASLGGKVTFTCKASQDIHKYVAWYQHKPGKGPRLLIHYTSTLQPGISSRFSGSGSGRDYSFSISNLEPEDIATYYCLQYNNLYTFGGGTKLEIK
notes: murine mAb
B18: SC16.49 (antibody, V domains shown)
VH: QVQLQQSGPELVKPGTLVKISCKASGYTFTSYDINWVKQRPGQGLEWIGWIYPGDGNTKYSEKFKGKATLTADKSSSTAYMQLTSLTSENSAVYFCARDYDYPFAYWGQGTLVTVSA
VL: DIKMTQSPSSMYASLGERVTITCKASQDINSYLSWFQQKPGKSPKTLIYRANRLVDGVPSRFSGSGSGQDYSLTITSLEYEDMGIYYCLQYDEFPLTFGAGTKLELK
notes: murine mAb
B19: SC16.42 (antibody, V domains shown)
VH: QIQLVQSGPELKKPGETVKISCKASGYTFTTAGMQWVQKMPGKGFKWIGWINTHSGEPKYADDFKGRFAFSLETSASTAYLQISNLKDEDTATFFCAPLWSDSSFAYWGQGTLVTVSA
VL: DVLMTQSPLSLSVSLGDQASISCRSSQNIVHSDRYTYLEWYLQKPGQSPKLLIYGVSNRFSGVPDRFSGSGSGTDFTLKISRVEAEDMGVYYCFQGTHVPYTFGGGTKLEIK
notes: murine mAb

molecular target: T1, human DLL3; assay: screen on immobilized hDLL3 or h293-hDLL3 cells
In short: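 Solid-phase ELISA on DLL3-His (0.5 μg/ml coating), developed with HRP anti-mouse IgG and TMB and read at OD 450, was one screen for supernatants of single-cell hybridomas from human DLL3-immunized mice taken after 10 days in culture. Flow-cytometry binding counted as positive only above the control.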

Binding result, binds:
B1
B2
B3
B4
B5
B6
B7
B8
B9
B10
B11
B12
B13
B14
B15
B16
B17
B18
B19
